Article PMC11225919

Target: T1, Fur (6xHis-tagged) (Salmonella enterica serovar Infantis 119944) (UniProt A0A4Z0KGQ7)
T1 sequence: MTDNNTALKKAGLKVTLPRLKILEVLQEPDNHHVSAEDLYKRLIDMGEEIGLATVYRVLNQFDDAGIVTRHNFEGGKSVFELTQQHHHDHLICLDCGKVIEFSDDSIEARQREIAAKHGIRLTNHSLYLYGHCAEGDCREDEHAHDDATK
Experiment: EMSA

With “CCGGGGTCGCGCCCCCATAAACGCCTCCCTGACAGAGGCCCGGATACCCCATCCGGGCCTCTGTTCTTTCCGCCTGTTACCAACCCGAAACGGGCATAAATAAACCCGTTTCGGGTAGCATACAATTGTTAATAATTATTATTCTCATATGAGCAATGCTTTTCGGTAAGACGTGCCATCAGGAGGAAGA (double strand) [irp2 promoter (pESI)]” the binding was “binds”.
